Results published in patent publication US20230192797A1 (published 2023).

Legend:
[1] = biological target: T1, recombinant human PD-L1-His protein (Novoprotein, Cat. 315) (human, UniProt Q9NZQ7 19-239); experiment: SPR (Biacore T200), antibody captured on the chip, PD-L1-His injected, 1:1 model, 25 C
T1 construct: Bought reagent; also called human PD-L1 recombinant protein; not shown: His tag

[2] = biological target: T2, cynomolgus monkey PD-L1-His protein (Sino Biological, Cat. 90251-C08H) (cynomolgus monkey, UniProt G7PSE7 19-239); experiment: as above
T2 construct: Bought reagent; also called cynomolgus PD-L1 recombinant protein; not shown: His tag
T2 sequence (G7PSE7 entry or part of it C08H C08H): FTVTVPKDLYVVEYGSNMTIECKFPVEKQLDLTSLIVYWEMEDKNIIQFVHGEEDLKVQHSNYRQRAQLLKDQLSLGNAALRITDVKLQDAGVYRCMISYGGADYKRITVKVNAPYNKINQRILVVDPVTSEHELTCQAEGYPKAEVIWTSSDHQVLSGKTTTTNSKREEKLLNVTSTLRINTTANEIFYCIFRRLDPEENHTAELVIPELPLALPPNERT

[3] = biological target: T3, Human PD-L1 recombinant protein (Sino Biological, Cat.10084-H05H) (human, UniProt Q9NZQ7 19-239); experiment: competitive ELISA: human PD-L1 coated, antibody titrated against human PD-1-His (competitor), anti-His-HRP detection
T3 construct: also called human PD-L1 protein; PD-L1 protein
T3 sequence (Q9NZQ7 19-239 limits assumed): as the sequence (G7PSE7 entry or part of it C08H C08H) above, with T33A, S34A, N62S, Q68R, R82Q, L173F, A185T, I192T, L215H counted along it
Procedure: Human PD-L1 recombinant protein (Sino Biological, Cat.10084-H05H) was diluted with carbonate buffer and added to 96-well ELISA plate at a final concentration of 1 μg/ml. […] The competitive binding curve of the tested antibody could be drawn by matching the antibody concentration to the OD value, and the IC50 value could be calculated.

[4] = biological target: T4, PD-L1 on the surface of CHO-PD-L1 cells (UniProt Q9NZQ7 19-290, limits assumed); experiment: flow cytometry (FACS) on CHO-PD-L1 cells, anti-human IgG PE detection
T4 construct: whole, on cells; also called CHO cell line stably transfected with PD-L1; PD-L1 target on the cell surface
T4 sequence (Q9NZQ7 19-290 limits assumed): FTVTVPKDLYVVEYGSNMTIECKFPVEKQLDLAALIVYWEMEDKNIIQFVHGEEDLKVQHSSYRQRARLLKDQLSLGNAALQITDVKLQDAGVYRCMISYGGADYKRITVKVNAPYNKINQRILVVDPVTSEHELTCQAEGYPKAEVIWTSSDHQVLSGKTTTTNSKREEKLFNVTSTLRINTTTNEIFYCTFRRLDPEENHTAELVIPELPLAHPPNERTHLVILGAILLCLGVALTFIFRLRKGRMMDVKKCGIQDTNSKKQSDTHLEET

[5] = biological target: T4, PD-L1 on the surface of CHO-PD-L1 cells; experiment: cell-based or functional assay

T1 sequence (Q9NZQ7 19-239 limits assumed): as the sequence (G7PSE7 entry or part of it C08H C08H) above, with T33A, S34A, N62S, Q68R, R82Q, L173F, A185T, I192T, L215H counted along it

B1: 794-h1-71 (antibody, human IgG1, kappa, V domains shown)
VH: QVQLQQSGPGLVKPSQTLSLTCAVSGDSITSGYWNWIRKFPSRGLEYMGYISYSGSTYYNPFLKSRISINRDTSKNQYYLQLNSVTPEDTAVYYCAKMGDWLAWFAYWGQGTLVTVSS
VL: EIVMTQSPPTLSLSPGERVTLSCKSSQSLLYSSNQKNSLAWYQQKPGQAPRLLIYWASTRESGIPARFSGSGSGTDFTLTISSLQPEDFAVYYCQQYYGYPYTFGQGTKLEIKR
notes: also called humanized PD-L1 antibody
Question: Which Kd [1] does the source give for B1 here?
Answer: Its Kd is 1.79 nM.

Question: And the Kd [2]?
Answer: The Kd was 0.937 nM.

Question: What about the IC50 [3] of the same binder?
Answer: Its IC50 is 0.849 nM.

Question: What about the EC50 [4] of the same binder?
Answer: Its EC50 is 0.0384 µg/mL.

Question: And the “EC50 of NFAT-controlled luminescent reporter signal (RLU), Jurkat-PD-1 cells co-incubated with CHO-PD-L1 cells” value [5]?
Answer: The value was 166 ng/mL.
